Test results from patent publication US12077566B2, “Mutants of recombinant immunoregulatory protein of Ganoderma lucidum and applications thereof” (priority 2017, dated 2024).
Positions count from the first letter of the chain named. In names and notes the source's numbering stands. Entries after “also recorded” stand apart in the source; their conditions may differ.

B1: rLZ-8 (K16A/K41A): alanine mutant of rLZ-8 at K16 and K41 (protein)
chain: MSDTALIFRLAWDVKALSFDYTPNWGRGNPNNFIDTVTFPAVLTDKAYTYRVAVSGRNLGVKPSYAVESDGSQKVNFLEYNSGYGIADTNTIQVFVVDPDTNNDFIIAQWN
B2: rLZ-8 (D45A): alanine mutant of rLZ-8 at D45 (protein)
chain: B1 chain with A16K, A41K, D45A
B3: rLZ-8 (L17K/D70K): rLZ-8 mutant after surface potential optimization, L17K and D70K (protein)
chain: B1 chain with A16K, L17K, A41K, D70K
B4: rLZ-8 (S18A): alanine mutant of rLZ-8 at S18 (protein)
chain: B1 chain with A16K, S18A, A41K
B5: rLZ-8 (D70K): rLZ-8 mutant after surface potential optimization, D70K (protein)
chain: B1 chain with A16K, A41K, D70K
B6: mPEG-SPA-rLZ-8: rLZ-8 modified with methoxy polyethylene glycol succinimidyl propionate (conjugate, UniProt P14945 2-111, looked up)
Immunomodulatory protein Ling …: SDTALIFRLAWDVKKLSFDYTPNWGRGNPNNFIDTVTFPKVLTDKAYTYRVAVSGRNLGVKPSYAVESDGSQKVNFLEYNSGYGIADTNTIQVFVVDPDTNNDFIIAQWN
modifications: mPEG-SPA PEGylation
notes: rLZ-8 modified with methoxy polyethylene glycol succinimidyl propionate

Legend:
[1] = system: liver cancer, lung cancer, breast cancer and colon cancer; assay: Animal pharmacodynamic experiments of liver, lung, breast and colon cancer (summary statement); type: in vivo, mice; conditions: breast and colon cancer models together
[2] = system: human breast cancer MCF7 cells; assay: Orthotopic transplantation tumor model of human breast cancer MCF7 cells; type: in vivo, BALB/c nude mice; conditions: after administration for 28 days
Description: One day before the experiment, 0.5 mg of 17ß estradiol sustained release tablet is embedded below the neck skin of the BALB/c nude mice.

[3] = system: human lung cancer A549 cells; assay: Orthotopic transplantation tumor model of human lung cancer A549 cells; conditions: for Mice survival rate after experiment / Mice tumor weight after experiment / Mice weight after experiment / Tumor inhibitory effect (in words): after administration for 28 days; for Effect on survival time (in words): compared with the rLZ-8;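 for all read-outs here: test animals were NOG mice aged 6-8 weeks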
[4] = system: human colon cancer SW480 cells; assay: Transplantation tumor model of human colon cancer SW480 cells; type: in vivo, BALB/c nude mice; conditions: after administration for 28 days
Description: The RPMI1640 medium containing 10% fetal bovine serum is selected for the human colon cancer SW480 cells, and then is placed in the CO2 constant-temperature incubator at 37° C. for culturing. The SW480 cells at the logarithmic phase are digested by pancreatin and thereafter washed with serum-free RPMI1640 medium; 2×10^6 cells are inoculated below the back skin of the BALB/c nude mice; after the tumor blocks for observation are formed and have the diameter larger than 0.5 cm, the mice are divided into groups randomly; and the transplantation tumor model of human colon cancer SW480 cells are constructed in the BALB/c nude mice.

[5] = system: human liver cancer Hep G2 cells; conditions: for Tumor inhibitory effect (in words): after administration for 28 days; for Mice weight after experiment / Effect on survival time of the mice (in words): mouse, in vivo; for Mice tumor weight after experiment / Survival rate of mice after experiment: qd×28 i.v., rLZ-8 and mutants 0.5 mg/kg, sorafenib 50 mg/kg; for Survival rate of mice after experiment: 10 mice per group
Description: Two weeks later, the model mice are divided into groups randomly, and each group has 10 mice. The administration method is caudal vein injection, once a day, for consecutive 28 days (qd×28, i.v.). […] During the experiment, if the mouse dies, the dead mouse is weighted on the same day, and the tumor tissue is taken out to be weighted. For the living mouse after administration for 28 days, the mouse is killed, and then the tumor tissue is taken out to be weighted. The death time and death number of the mice in each group are recorded in detail; the survival conditions of the mice of the experimental groups and the control groups are analyzed, and the survival rate is calculated, wherein the survival rate is obtained through subtracting the death number of the mice from the total number of the mice, and then dividing the difference by the total number of the mice.

[6] = target: EGFR extracellular domain (Homo sapiens, UniProt P00533); assay: Affinity test by surface plasmon resonance (Biacore T200, CM5 chip); type: binding; conditions: for Affinity with the EGFR (in words): compared with rLZ-8
Description: The Biacore™ T200 equipment (a Surface Plasmon Resonance from GE Company) is selected. Through the surface plasma resonance technology, the affinity of the rLZ-8 and the mutants thereof to the EGFR extracellular domain is tested. The CM5 chip is adopted to serve as the affinity test chip.
The EGFR extracellular domain (with an amino acid sequence of 25-645) serves as the ligand for coupling; 1 mg EGFR freeze-dried powders are diluted with HEPES buffer solution to a concentration of 400 μg/mL and set aside. Three 1.5 mL EP tubes are prepared; 10 μL ligand are respectively added into the three tubes, then 90 μL 10 mM sodium acetate with different pH values of 4.5, 5.0 and 5.5 are respectively added into the tubes and are mixed completely and uniformly; and a final concentration of the ligand is 40 μg/mL. Moreover, 200 μL 50 mM sodium acetate is added into another 1.5 mL EP tube.
The ligand has a molecular weight of 70 kDa, the analyte (rLZ-8) has a molecular weight of 12.4 kDa. In theory, one rLZ-8 […] can bind with one EGFR, and thus the stoichiometric ratio Sm is equal to 1. Through the following equations, the coupling amount RL of the ligand is calculated.
Through the experimental experience, the optimal reagent coupling amount is set to be 3*RL, and the coupling amount is set to be 1700 RU. The EGFR extracellular domain is successively coupled on the CM5 chip.
In the affinity test, in order to eliminate the influence of different concentrations on the affinity, every of the rLZ-8 and the mutants thereof are tested with eight concentrations, wherein: seven concentrations are gradient concentrations, and the last one is the test reference concentration.

tumor = assay: Early animal pharmacodynamic experiments of PEG-modified rLZ-8; type: in vivo; conditions: compared with rLZ-8
[7] = EGFR extracellular domain coupled on CM5 chip, analyte 4-256 nM

Row | Molecule | Tumor inhibitory effect (in words) [1] | Mice tumor weight after experiment [2] | Tumor inhibitory effect (in words) [2] | Mice survival rate after experiment [3] | Mice tumor weight after experiment [3] | Mice weight after experiment [3] | Tumor inhibitory effect (in words) [3] | Mice tumor weight after experiment [4] | Tumor inhibitory effect (in words) [4] | Tumor inhibitory effect (in words) [5] | Mice weight after experiment [5] | Mice tumor weight after experiment [5] | Survival rate of mice after experiment [5] | Dissociation rate constant (koff) [6, 7] | Ka [6, 7] | Affinity with the EGFR (in words) [6] | Affinity with the EGFR (in words) ([6]; listed as rLZ-8 (K16A/K41 A)) | Effect on survival time (in words) [3] | Effect on survival time of the mice (in words) [5] | Antitumor effect (in words) (tumor)
1 | B1 | nearly no tumor inhibitory effect | 1.12 ± 0.37 g | nearly no tumor inhibitory effect | 20% | 1.26 ± 0.77 g | 17.4 ± 1.5 g | nearly no tumor inhibitory effect | 3.12 ± 0.47 g | nearly no tumor inhibitory effect | nearly no tumor inhibitory effect | 17.2 ± 1.3 g | 1.46 ± 0.93 g | 20% | 0.000273 s⁻¹ | 220 M⁻¹ s⁻¹ | obviously decreased by 2-3 orders of magnitudes | obviously decreased affinity |  |  | 
2 | B2 | nearly no tumor inhibitory effect | 1.08 ± 0.28 g | nearly no tumor inhibitory effect | 30% | 1.28 ± 0.68 g | 17.5 ± 1.5 g | nearly no tumor inhibitory effect | 3.26 ± 0.56 g | nearly no tumor inhibitory effect | nearly no tumor inhibitory effect | 17.4 ± 1.6 g | 1.44 ± 0.80 g | 50% |  | 1200 M⁻¹ s⁻¹ | obviously decreased by 2-3 orders of magnitudes; also recorded: obviously decreased affinity |  |  |  | 
3 | B3 | obviously increased tumor inhibitory effects | 0.49 ± 0.26 g | obviously increased tumor inhibitory effect | 80% | 0.40 ± 0.26 g | 21.2 ± 1.5 g | obviously increased tumor inhibitory effect | 1.09 ± 0.33 g | obviously increased tumor inhibitory effect | obviously increased tumor inhibitory effects | 21.0 ± 1.8 g | 0.42 ± 0.23 g | 90% |  | 215000 M⁻¹ s⁻¹ |  |  | can obviously lengthen the survival time | certain effect on lengthening the survival time | 
4 | B4 | nearly no tumor inhibitory effect | 1.04 ± 0.30 g | nearly no tumor inhibitory effect | 30% | 1.20 ± 0.70 g | 17.8 ± 1.6 g | nearly no tumor inhibitory effect | 3.01 ± 0.39 g | nearly no tumor inhibitory effect | nearly no tumor inhibitory effect | 17.6 ± 1.4 g | 1.50 ± 0.71 g | 30% |  | 3720 M⁻¹ s⁻¹ | obviously decreased by 2-3 orders of magnitudes; also recorded: obviously decreased affinity |  |  |  | 
5 | B5 | obviously increased tumor inhibitory effects | 0.52 ± 0.28 g | obviously increased tumor inhibitory effect | 80% | 0.36 ± 0.28 g | 21.1 ± 1.2 g | obviously increased tumor inhibitory effect | 1.22 ± 0.29 g | obviously increased tumor inhibitory effect | obviously increased tumor inhibitory effects | 20.7 ± 1.7 g | 0.35 ± 0.21 g | 80% |  | 203000 M⁻¹ s⁻¹ |  |  | can obviously lengthen the survival time | certain effect on lengthening the survival time | 
6 | B6 |  |  |  |  |  |  |  |  |  |  |  |  |  |  |  |  |  |  |  | decreased
